Values of other authors as cited in paper doi:10.1101/2020.11.23.394015.

Target: Glu89 (UniProt position 105, IDALNENKVLV)
Settings: folded; closed-to-open EF loop (Tanford) transition

In the case of beta-lactoglobulin (BBL) (Bos taurus), the pKa is given as ~ 7.3.
